B1: D168A (1b) (protein)
chain: APITAYSQQTRGLLGCIITSLTGRDRNQVEGEVQVVSTATQSFLATCVNGVCWTVYHGAGSKTLAGPKGPITQMYTNVDQDLVGWQAPPGARSLTPCTCGSSDLYLVTRHADVIPVRRRGDSRGSLLSPRPVSYLKGSSGGPLLCPSGHAVGIFRAAVCTRGVAKAVAFVPVESMETTMRSHHHHHH
B2: D168V (1b) (protein)
chain: B1 chain with A168V
B3: Wt (1b): wild-type HCV NS3 serine protease domain, genotype 1b (Con1 strain) (protein)
chain: B1 chain with A168D
B4: A156S (1b) (protein)
chain: B1 chain with A156S, A168D
B5: A156V (protein)
chain: B1 chain with A156V, A168D
B6: A156T (protein)
chain: B1 chain with A156T, A168D

Where a chain is given by its changes, count along the chain named. Numbers in names are those of the source.

The results in this text go back to patent US7884199B2, “HCV NS3-NS4 protease resistance mutants” (priority 2003, dated 2011).

By Km is commonly meant the concentration of substrate that gives half-maximal velocity.

One data set in a line: Substrate kinetic parameters of NS3 serine protease domains with KK-NS4A peptide and FRET substrate. The format is biochemical, Hepatitis C virus. As to conditions: FRET substrate. As to the method:
Enzymatic activity was determined using a modification of the assay described by Taliani et al., [Taliani et al., Anal. Biochem., 240, pp. 60-67 (1996)]. An internally quenched fluorogenic peptide (FRET substrate), Ac-DED(EDANS)EEαAbuψ[COO]ASK (DABCYL)-NH2, was purchased from AnaSpec Incorporated (San Jose, Calif.). The assay was run in a continuous mode in a 96-well microtiter plate format. The buffer was composed of 50 mM HEPES (pH 7.8), 100 mM NaCl, 20% glycerol, 5 mM DTT, and 25 μM KK4A peptide ([…]; SEQ ID NO:5). The KK4A peptide represents the central region of the NS4A cofactor from genotype 1a with lysine residues added for improved solubility [Landro et al. Biochemistry, 36, pp. 9340-9348 (1997)]. The reaction was initiated by the addition of the FRET substrate after a 10-min pre-incubation of the buffer components with 2 nM of the NS3 protease at room temperature. The reaction was monitored at 30° C. for 20 min using a Molecular Devices fmax fluorometric plate reader. The filters for excitation and emission wavelengths were 355 nm and 495 nm, respectively. For determination of substrate kinetic parameters, concentrations of the FRET peptide were varied from 0.5-7.0 μM. Inter-molecular quenching was not observed in this range. The substrate kinetic parameters, Km and Vmax, were determined by fitting the data to the Michaelis-Menten equation. […] This mixture was incubated for an additional 15 min at room temperature prior to an incubation with the FRET substrate for another 20 min at 30° C. Seven to eight concentrations of compound were assayed, and the resulting data were fitted to the integrated form of Morrison's equation for tight binding inhibition [J. F. Morrison, Biochim. Biophys. Acta, 185 pp. 269-286 (1969)]. All substrate and inhibitor data were fitted using Marquardt-Levenberg nonlinear regression with GraphPad Prism software.
Five HCV NS3 serine protease domain proteins, including the genotype 1a and 1b wild-type (wt) proteases, and three mutants (A156S, D168V, and D168A) of the genotype 1b, were expressed and purified as described in Materials and Methods. The kcat and Km values of these NS3 proteases were determined using the KK-NS4A core peptide and the FRET substrate.
Table 4 summary: Three HCV NS3 serine protease domain proteins of the Con1 strain, including the wild-type proteases and two mutants, A156T and A156V, were expressed and purified. The kcat and Km values of these NS3 proteases were determined using the KK-NS4A core peptide and the FRET substrate, and the average of two independent assays was shown.
Turning to B1, the “change of substrate kinetic parameters (kcat, kcat/Km) compared with wild type” value was “less than 10 fold”.

The data set is the same for the next values; noted with them: Table 1; FRET substrate, KK-NS4A core peptide.
For B1, the Kcat was determined as 0.3 s⁻¹ and the Km was 2 µM.

B2: the Kcat was 0.6 s⁻¹ and the Km was determined as 1.2 µM.

B3: the Kcat came out at 1.0 s⁻¹ and the Km was 1.1 µM.

As for B4, the Kcat was found to be 0.6 s⁻¹ and the Km amounted to 0.9 µM.

The same data set, now with this note: Table 4; Con1 strain, average of two independent assays.
As for B5, the Kcat came to 0.6 s − 1 and the Km was 2.6 µM.

Consider B3, for which the Kcat stood at 1.0 s − 1 and the Km stood at 1.1 µM.

Turning to B6, the Kcat was found to be 0.2 s − 1 and the Km worked out at 1.3 µM.
